B1: Heart- and neural crest derivatives-expressed protein 2 (Mus musculus), Q61039 (parent)
chain: MSLVGGFPHHPVVHHEGYPFAAAAAAAAAAAASRCSHEENPYFHGWLIGHPEMSPPDYSMALSYSPEYASGAAGLDHSHYGGVPPGAGPPGLGGPRPVKRRGTANRKERRRTQSINSAFAELRECIPNVPADTKLSKIKTLRLATSYIAYLMDLLAKDDQNGEAEAFKAEIKKTDVKEEKRKKELNEILKSTVSSNDKKTKGRTGWPQHVWALELKQ
partner: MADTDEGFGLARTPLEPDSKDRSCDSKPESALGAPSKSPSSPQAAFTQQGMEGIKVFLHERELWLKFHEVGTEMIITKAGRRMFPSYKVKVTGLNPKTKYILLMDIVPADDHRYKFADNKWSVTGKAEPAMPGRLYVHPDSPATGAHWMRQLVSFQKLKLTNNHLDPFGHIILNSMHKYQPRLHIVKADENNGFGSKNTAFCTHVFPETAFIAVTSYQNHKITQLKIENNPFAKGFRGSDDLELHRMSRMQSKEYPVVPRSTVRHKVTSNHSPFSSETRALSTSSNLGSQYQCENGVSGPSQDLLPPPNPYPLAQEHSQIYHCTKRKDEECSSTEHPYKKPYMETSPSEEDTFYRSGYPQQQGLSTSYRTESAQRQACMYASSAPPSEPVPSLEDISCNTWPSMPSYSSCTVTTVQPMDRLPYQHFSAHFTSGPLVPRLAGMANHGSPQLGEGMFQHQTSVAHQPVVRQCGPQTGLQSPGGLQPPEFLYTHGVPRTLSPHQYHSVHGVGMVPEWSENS

Variants of: B1
Details: with tbx5_mouse Tbx5, P70326

Variant	effect of a mutation on the interaction
MSLVGGFPHHPVVHHEGYPFAAAAAAAAAAAASRCSHEENPYFHGWLIGHPEMSPPDYSMALSYSPEYASGAAGLDHSHYGGVPPGAGPPGLGGPRPVKRRGTANRKERRRTQSINSAFAELRECIPNVPADTKLSKIKTLRLATSYIAYLMDLLAKDDQNGEAEAFKAEIKKTDVKEEKRKKELNEILKSTVSSNDKKTKVRTGWPQHVWALELKQ [G202V]	decreasing interaction strength

From IntAct's records for PubMed 28469241
